This note sets out measurements from US8263350B2, “Molecular affinity clamp technology and uses thereof” (The University of Chicago, priority 2009, dated 2012).

Experiment [1] relates to ePDZ-b2. The experiment is described as follows: SPR binding of the new tag peptide to ePDZ-b2. The settings on record: FIG. 9, SPR, ePDZ-b2 immobilized. As to the method:
The affinity clamps were immobilized and the target peptides in the form of yeast SUMO fusion protein were used as the analytes. (a) Sensorgrams for the interaction of the wild-type ARVCF peptide and ePDZ-b2. Data with 0, 10, 20, 40, 80 and 160 nM peptide are shown in black, and calculated curves from the global fittings of the 1:1 Langmuir binding model are in orange. The estimated dissociation constant is indicated. The peptide sequence is also shown. (b) Sensorgrams for the interaction of the new tag peptide to ePDZ-b2. Data with 0, 10, 20, 40 and 80 nM target are shown.
(§1) Affinity Measurements. SPR measurements were performed in 20 mM HEPES/NaOH buffer (pH 7.4), 150 mM NaCl, and 0.005% Tween 20 at 25° C. on a BIAcore 2000 instrument. The affinity clamp or the linker mutant was immobilized on a Ni-NTA chip to the level of approximate 300 RU, and different concentrations of SUMO-peptide fusion protein were injected. The kinetic data were analyzed using the one-to-one binding model in BIAEvaluation (BIAcore). For weak interactions (Kd>5 μM), Kd values were determined from the saturation curve of the maximum RU values.
For orientation: SPR reads the build-up and loss of mass on a sensor chip optically.

Experiment [2] concerns the target T1, ARVCF peptide (Homo sapiens, UniProt O00192).
T1 construct: His tag (N, cleaved yes); made in house; host or cells: E. coli BL21(DE3)
The experiment can be described thus: SPR affinity measurement of affinity clamps with the ARVCF peptide. The class given is binding. Particulars: 25° C. As to the method:
(§2) Protein Expression and Purification. All proteins used in this study were expressed using derivatives of the pHFT2 expression vector in E. coli BL21(DE3) cells. Protein expression was induced with 500 μM IPTG for three to five hours at 25° C. Proteins were purified with Ni affinity chromatography following standard protocols. When necessary, a second step of purification with Sephacryl S-100 column in PBS (50 mM sodium phosphate containing 150 mM NaCl, pH 7.4) was performed to ensure that proteins were monomeric. For protein crystallization and SPR experiments, the N-terminal His tag was cleaved with TEV protease and the cleaved protein was purified using Ni affinity chromatography.
(§3) Site-directed mutagenesis. Mutant forms of the SUMO-ARVCF peptide fusion protein and linker mutants of affinity clamps were constructed using Kunkel mutagenesis.
as §1

For experiment [3], the target named is T2, δ-catenin peptide (Homo sapiens, UniProt Q9UQB3).
T2 construct: His tag (N, cleaved yes); made in house; host or cells: E. coli BL21(DE3)
The experiment is described as follows: SPR affinity measurement of affinity clamps with the δ-catenin peptide. The class given is binding. As to the method: as §2, §1

In experiment [4] the test system is ARVCF peptide (alanine substituted). The experiment is described as follows: Ala-scanning of the ARVCF peptide with SPR affinity measurements. The class given is binding. Particulars: substitution at each of the four positions −7 to −4 of the ARVCF peptide.
Text: Alanine-scanning mutagenesis analysis. Although the phage-display library approach is powerful in determining general trends in sequence specificity, large-scale sequencing is necessary for quantitatively characterizing protein-interaction energetics (Skelton et al., 2003; Sidhu and Koide, 2007). This requirement is acute particularly when there is a strong amino acid preference and thus recovered clones are dominated by a particular pattern, as in our case above. Accordingly, to complement the library sorting experiments described above, the inventors performed Ala-scanning experiments of the ARVCF peptide coupled with affinity measurements using SPR. Because the goal was to understand the differences in target recognition of the affinity clamps, and because the sequence specificity of the C-terminal four residues is predominantly defined by the specificity of the parent PDZ domain, the inventors analyzed only those positions that differed between the ARVCF and δ-catenin peptides.
as §3
Affinity Measurements. […] The kinetic data were analyzed using the one-to-one binding model in BIAEvaluation (BIAcore). […]

Ends that are not written are not given here.

Turning to “RGSIDTWV-COOH (RGSIDTWV-OH) [used in SPR as yeast SUMO fusion]”, in experiment [1], the “affinity compared with the original (ARVCF) peptide” value was “higher affinity” and the “dissociation rate compared with the original (ARVCF) peptide” value is “much slower”.

B1: Erbin PDZ: wild-type Erbin PDZ domain, the parent capture domain of the affinity clamps (protein)
chain: EIRVRVEKDPELGFSISGGVGGRGNPFRPDDDGIFVTRVQPEGPASKLLQPGDKIIQANGYSFINIEHGQAVSLLKTFQNTVELIIVREV
Turning to B1, the Kd (commonly a measure of binding affinity in units of concentration) in experiment [2] is 2.2 µM; in experiment [3] (SPR, 25° C.), 6.3 µM. Also, the “discrimination between ARVCF peptide and δ-catenin peptide” value in experiment [3] is “almost equally”. The “Specificity Index” value in experiment [3] (ratio of the Kd for δ-catenin to the Kd for ARVCF) is on record as 3. For the same molecule, in experiment [4], the “decrease in binding (ΔΔG) on alanine substitution” value is “only small effects”.
